Data from publication PMC2064543.

Biological target: adenomatous polyposis coli (APC), endogenous in Xenopus egg extracts (Xenopus laevis (endogenous in egg extracts)) (UniProt P70039)
Test: co-IP

UniProt P70039, sequence (P70039 whole entry): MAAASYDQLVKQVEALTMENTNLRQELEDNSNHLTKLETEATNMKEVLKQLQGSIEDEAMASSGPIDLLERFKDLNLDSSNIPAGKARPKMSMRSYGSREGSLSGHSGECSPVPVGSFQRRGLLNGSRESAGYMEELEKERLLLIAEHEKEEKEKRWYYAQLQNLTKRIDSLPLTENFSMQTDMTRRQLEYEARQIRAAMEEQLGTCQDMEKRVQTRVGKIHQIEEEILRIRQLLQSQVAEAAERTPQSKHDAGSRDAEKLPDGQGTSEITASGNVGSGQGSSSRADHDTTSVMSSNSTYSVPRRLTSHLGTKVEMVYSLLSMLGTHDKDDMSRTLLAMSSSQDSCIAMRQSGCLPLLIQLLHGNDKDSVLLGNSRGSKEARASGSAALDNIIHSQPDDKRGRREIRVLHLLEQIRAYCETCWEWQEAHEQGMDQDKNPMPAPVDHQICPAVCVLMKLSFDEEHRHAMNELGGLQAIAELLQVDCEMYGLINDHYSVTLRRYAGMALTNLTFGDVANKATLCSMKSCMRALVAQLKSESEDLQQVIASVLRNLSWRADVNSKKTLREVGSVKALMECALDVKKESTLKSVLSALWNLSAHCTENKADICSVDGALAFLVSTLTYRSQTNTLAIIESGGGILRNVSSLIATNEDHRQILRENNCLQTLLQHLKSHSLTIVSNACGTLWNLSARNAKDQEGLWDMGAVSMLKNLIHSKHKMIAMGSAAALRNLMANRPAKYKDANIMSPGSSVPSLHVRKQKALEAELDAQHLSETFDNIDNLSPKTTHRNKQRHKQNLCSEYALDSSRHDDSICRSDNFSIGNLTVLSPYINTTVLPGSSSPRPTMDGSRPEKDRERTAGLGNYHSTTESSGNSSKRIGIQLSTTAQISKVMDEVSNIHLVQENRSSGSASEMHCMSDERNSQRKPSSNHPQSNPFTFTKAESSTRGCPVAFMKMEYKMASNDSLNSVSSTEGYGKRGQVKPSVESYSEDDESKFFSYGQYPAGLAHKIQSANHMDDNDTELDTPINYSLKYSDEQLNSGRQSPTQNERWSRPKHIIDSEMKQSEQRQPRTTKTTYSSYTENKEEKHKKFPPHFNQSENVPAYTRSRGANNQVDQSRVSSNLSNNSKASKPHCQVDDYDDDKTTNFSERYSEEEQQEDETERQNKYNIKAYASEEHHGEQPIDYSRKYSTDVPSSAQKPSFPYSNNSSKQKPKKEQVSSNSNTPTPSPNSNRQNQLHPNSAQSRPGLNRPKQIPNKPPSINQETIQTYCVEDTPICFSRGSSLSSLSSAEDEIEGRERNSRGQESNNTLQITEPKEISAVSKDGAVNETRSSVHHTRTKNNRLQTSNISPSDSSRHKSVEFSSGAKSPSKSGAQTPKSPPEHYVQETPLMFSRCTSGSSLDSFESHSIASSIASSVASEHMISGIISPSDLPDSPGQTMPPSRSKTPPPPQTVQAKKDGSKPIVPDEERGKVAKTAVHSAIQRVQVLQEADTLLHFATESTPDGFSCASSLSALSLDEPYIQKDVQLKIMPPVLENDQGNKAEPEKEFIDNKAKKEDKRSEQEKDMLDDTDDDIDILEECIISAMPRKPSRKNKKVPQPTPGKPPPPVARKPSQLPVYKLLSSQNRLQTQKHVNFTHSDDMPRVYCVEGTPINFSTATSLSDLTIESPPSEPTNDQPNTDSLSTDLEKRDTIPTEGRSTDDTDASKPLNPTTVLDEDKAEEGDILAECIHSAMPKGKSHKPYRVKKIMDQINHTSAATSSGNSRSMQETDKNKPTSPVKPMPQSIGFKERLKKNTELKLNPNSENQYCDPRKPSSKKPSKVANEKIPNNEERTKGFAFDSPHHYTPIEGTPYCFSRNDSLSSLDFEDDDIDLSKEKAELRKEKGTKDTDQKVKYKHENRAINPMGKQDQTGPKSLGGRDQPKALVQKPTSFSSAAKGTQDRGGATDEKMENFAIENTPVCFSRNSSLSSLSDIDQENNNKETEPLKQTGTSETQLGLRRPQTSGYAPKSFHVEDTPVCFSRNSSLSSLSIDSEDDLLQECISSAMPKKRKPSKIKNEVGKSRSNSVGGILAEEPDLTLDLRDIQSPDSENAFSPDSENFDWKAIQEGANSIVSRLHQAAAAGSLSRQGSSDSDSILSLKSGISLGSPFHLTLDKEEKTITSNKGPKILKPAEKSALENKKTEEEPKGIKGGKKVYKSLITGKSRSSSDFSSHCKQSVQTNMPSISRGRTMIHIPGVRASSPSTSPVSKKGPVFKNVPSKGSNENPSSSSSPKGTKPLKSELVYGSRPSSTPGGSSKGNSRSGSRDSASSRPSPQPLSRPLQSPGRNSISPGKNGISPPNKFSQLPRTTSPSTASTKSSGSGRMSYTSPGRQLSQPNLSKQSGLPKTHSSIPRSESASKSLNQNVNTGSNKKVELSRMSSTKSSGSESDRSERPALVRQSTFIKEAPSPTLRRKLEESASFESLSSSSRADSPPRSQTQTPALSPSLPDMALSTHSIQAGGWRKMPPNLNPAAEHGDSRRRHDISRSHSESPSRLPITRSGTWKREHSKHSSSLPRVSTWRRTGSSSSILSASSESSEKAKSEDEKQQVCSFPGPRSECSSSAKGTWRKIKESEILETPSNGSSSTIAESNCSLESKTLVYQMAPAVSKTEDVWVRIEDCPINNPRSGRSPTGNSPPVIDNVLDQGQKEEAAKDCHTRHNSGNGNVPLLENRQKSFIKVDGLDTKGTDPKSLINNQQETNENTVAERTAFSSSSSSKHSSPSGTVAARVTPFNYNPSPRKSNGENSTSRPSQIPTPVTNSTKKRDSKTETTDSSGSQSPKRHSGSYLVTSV

Q: With “GST–KD-BubR1 (recombinant Xenopus kinase-dead BubR1) (from UniProt B7ZQ97 1-1041) (natural protein)” as the substance, how does the percent less coimmunoprecipitated with APC than WT-BubR1 read?
A: 40%
